Results as given in patent US12723255B2, “Herbicide tolerance genes and methods of use thereof” (priority 2014, dated 2026).
“And” between values parts separate entries of the source, which are not always exact repeats. Equal values may be shown once.

B1: MON-HT51: engineered oxygenase protein, amino acid sequence SEQ ID NO:1 (protein)
chain: MHAALSPLSQRFERIAVQPLTGVLGAEITGVDLREPLSDSTWNEILDAFHTYQVIYFPGQAITNEQHIAFSRRFGPVDPVPLLKSIEGYPEVQMIRREANESGRVIGDDWHTDSSFLDAPPAAVVMRAIDVPEHGGDTGFLSMYTAYDALSDGLKKLISGLNVVHSATRVFGSLYQAQNRRFSNTSVKVMDVADGDRETVHPLVVTHPGSGRKGLYVNQVYCQRIEGMSEKESEPLLSFLFAHATKPEFTCRVRWKKDQVLVWDNLCTMHYAINDYHGQTRILHRTTVGGVRPAR
B2: MON-HT55: engineered oxygenase protein, amino acid sequence SEQ ID NO:11 (protein)
chain: MHAALSPLSQRFERIAVQPLTGVLGAEITGVDLREPLDDSTWNEILDAFHTYQVIYFPGQAITNEQHIAFSRRFGPVDPVPLLKSIEGYPEVQMIRREANESGRVIGENWHTDSTFLDAPPAAVVMYAKEIPPYGGDTLFTSMYTAWETLSPTMQATIEGLNVVHSATRVFGSLYQAQNRRFSNTSVKVMDVDAGDRETVHPLVVTHPETGRKGLYVNQVYCQRIEGMSEKESEPLLSFLFAHATKPEFTCRVRWQEGDVLVWDNLCTQHYAVPDYAGKFRYLTRTTVGGVRPAR

Tests used:
[1] = high-throughput enzyme assay with crude bacterial extract; type: biochemical; settings: relative to wild-type RdpA; for Average quizalofop-P activity: average of replicates
Description: The high-throughput bacterial protein expression was achieved by synthesizing a recombinant DNA molecule encoding each engineered protein and cloning this into a bacterial expression vector with a C-terminal histidine tag (His-tag) operably linked to the recombinant DNA molecule. The vectors were used to transform Escherichia coli (E. coli), and bacterial expression of the engineered proteins was induced. Overnight E. coli cultures were grown in 96-well plates and the cultures were centrifuged to pellet the bacteria. The bacterial pellets were lysed by adding 100 ul lysis master mix (10 ml of Bacteria Protein Extraction Reagent (B-PER®) II (Pierce Biotechnology, Rockford, IL; cat. no. 78260); 10 ul Lysozyme (10 ug/ml final; Lysozyme American Bioanalytical, Natick, MA; cat. no. AB011780-00005); and 40 ul Benzonase® Nuclease (100 Units/ml final, Novagen, Darmstadt, Germany; cat no 71206-3)) to each well. The plates were vortexed then incubated for 30 minutes at 4° C. 400 ul of MOPS buffer (pH 6.57) was added to cach well and the debris pelleted by centrifugation. The lysate supernatant was carefully removed and used as the crude bacterial extract for subsequent enzymatic analysis.
The high-throughput herbicide degradation enzyme assay was designed to assay the enzymatic activity of the engineered proteins towards various herbicides using crude bacterial extract. The engineered protein's oxygenase activity (that is, its enzymatic activity) was measured by an end point colorimetric assay utilizing detection of phenol products through measurement of absorbance at 510 nm from 4-aminoantipyrine and potassium ferricyanide. This assay was based on the assay described in Fukomori and Hausinger, Journal of Biological Chemistry (1993) 268(32):24311-24317. Enzyme reactions were assayed in 96-well plates in a total volume of 150ul that contained: 20 mM MOPS pH 6.75, 50-200 uM NH4FeSO4, 50-200 uM sodium ascorbate, 1 mM alpha-ketoglutarate (aKG), 10 ul of E. coli cell lysate containing expressed engineered protein, and substrate (either an AOPP herbicide or phenoxy acid herbicide). […] Absorbance measurements were made on a standard laboratory spectrometer. Assays were scaled as needed to enhance throughput. Standard curves were generated using purified protein or product standards.
Using this high-throughput bacterial protein expression and enzyme assay system, activities of approximately 1200 engineered proteins were measured relative to the activity of a selected wild-type protein, RdpA. In a 96 well plate assay, there were 3 controls (crude bacterial extract without an engineered protein) and 3 positive controls (crude bacterial extract with wild-type protein). The absorbance of the wells was measured and the protein activity was calculated using the following formula:
[formula] where, Activityi is the activity of the sample, Absorbancei is the absorbance of the sample, AbsorbanceWT is the absorbance of the wells containing extract from E. coli expressing the wild-type enzyme, and AbsorbancepET is the absorbance of the wells containing extract from E. coli without an engineered protein. Activity for each unique engineered protein was measured in duplicate and was reported as an average of the two measurements.
Using the information learned from the first assays, protein engineering was then done as described previously to produce additional engineered proteins, which were tested as described in this Example 1. The results of the high-throughput enzyme assay with quizalofop-P as the substrate for five of these additional engineered proteins are provided in Table 2.

transgenic maize plants [2] = test: inbred trait efficacy field trials (R2); type: in vivo; settings: with or without CTP; quizalofop-P 0.16 lb ai/acre PRE, V4, V8
Description: Inbred trait efficacy field trials were conducted to assess tolerance to the AOPP herbicides and sensitivity to the cyclohexanediones (CHD) herbicides in an inbred background. R2 inbred plants were generated by selfing a homozygous transgenic R1 plant and collecting seed. R2 inbred plants containing MON-HT55 with or without a CTP or MON-HT51 with a CTP and were evaluated at two field locations. Herbicide treatment was 2× quizalofop-P at 0.16 lb ai/acre applied PRE (after planting but before emergence) followed by quizalofop-P at 0.16 lb ai/acre applied at V4 growth stage followed by quizalofop-P at 0.16 lb ai/acre applied at V8 growth stage. Plots were rated for crop injury 7-10 days after herbicide application on a scale of 0-100 with zero being no injury and 100 being complete crop death. All data were subjected to analysis of variance and means separated at LSD (0.05). […] To test for sensitivity to CHD herbicides, which is desirable for use in volunteer control, plants were treated with a 1× rate of clethodim (0.25 lb ai/acre) at V8 growth stage. […] The resulting F1 plants containing MON-HT55 (SEQ ID NO:13) with or without a CTP or MON-HT51 (SEQ ID NO: 3) without a CTP were evaluated at six field locations. […] This permitted the engineered protein to be evaluated in maize under high temperature and water stress conditions. […]

transgenic maize plants [3] = test: R1 trait efficacy field trial (quizalofop-P and haloxyfop); type: in vivo; settings: 2× quizalofop-P pre-plant, 2× haloxyfop V4, 2× quizalofop-P V8
Description: To assess the effect of using a CTP to target the engineered protein to the plant cell chloroplast, transgenic plants comprising a transgene insert with and without a CTP operably linked to the protein-coding sequence were compared. […] This unexpected finding was tested again in trait efficacy field trials with R1 plants comprising either MON-HT51 with or without a CTP operably linked to the protein-coding sequence or MON-HT55 with or without a CTP operably linked to the protein-coding sequence. These R1 plants were single-copy, but were still segregating. In this field trial, seed was planted in the field and treated as follows: 2× (0.16 lb ai/acre) quizalofop-P at pre-plant, 2× (0.14 lb ai/acre) haloxyfop at V4 growth stage, then 2× quizalofop-P at V8 growth stage. A higher percentage of plants comprising a CTP operably linked to the protein-coding sequence survived quizalofop-P and haloxyfop applications and had lower injury scores compared to plants not comprising a CTP operably linked to the protein-coding sequence. This confirmed the unexpected finding that a CTP operably linked to the protein-coding sequence confers higher plant tolerance to herbicide application for the engineered proteins.

Molecule	Replicate 1 quizalofop-P activity [1]	Replicate 2 quizalofop-P activity [1]	Replicate 3 quizalofop-P activity [1]	Average quizalofop-P activity [1]	crop injury of inbred plants (transgenic maize plants [2])	Average % Herbicide Injury (transgenic maize plants [3]; CTP No)	Average % Herbicide Injury (transgenic maize plants [3]; CTP Yes)
B1	117.02	124.87	110.17	117.35	no injury	95%	35%
B2	118.48	99.79		109.13	no injury	49% and 90%	24% and 25%
